The numbers were not newly measured in article PMC5356237, which cites them from elsewhere.

pKd: −log10 of the molar value.

The data set concerns the target HER3 (Homo sapiens) (UniProt P21860).
Sequence of UniProt P21860 (P21860 20-1342): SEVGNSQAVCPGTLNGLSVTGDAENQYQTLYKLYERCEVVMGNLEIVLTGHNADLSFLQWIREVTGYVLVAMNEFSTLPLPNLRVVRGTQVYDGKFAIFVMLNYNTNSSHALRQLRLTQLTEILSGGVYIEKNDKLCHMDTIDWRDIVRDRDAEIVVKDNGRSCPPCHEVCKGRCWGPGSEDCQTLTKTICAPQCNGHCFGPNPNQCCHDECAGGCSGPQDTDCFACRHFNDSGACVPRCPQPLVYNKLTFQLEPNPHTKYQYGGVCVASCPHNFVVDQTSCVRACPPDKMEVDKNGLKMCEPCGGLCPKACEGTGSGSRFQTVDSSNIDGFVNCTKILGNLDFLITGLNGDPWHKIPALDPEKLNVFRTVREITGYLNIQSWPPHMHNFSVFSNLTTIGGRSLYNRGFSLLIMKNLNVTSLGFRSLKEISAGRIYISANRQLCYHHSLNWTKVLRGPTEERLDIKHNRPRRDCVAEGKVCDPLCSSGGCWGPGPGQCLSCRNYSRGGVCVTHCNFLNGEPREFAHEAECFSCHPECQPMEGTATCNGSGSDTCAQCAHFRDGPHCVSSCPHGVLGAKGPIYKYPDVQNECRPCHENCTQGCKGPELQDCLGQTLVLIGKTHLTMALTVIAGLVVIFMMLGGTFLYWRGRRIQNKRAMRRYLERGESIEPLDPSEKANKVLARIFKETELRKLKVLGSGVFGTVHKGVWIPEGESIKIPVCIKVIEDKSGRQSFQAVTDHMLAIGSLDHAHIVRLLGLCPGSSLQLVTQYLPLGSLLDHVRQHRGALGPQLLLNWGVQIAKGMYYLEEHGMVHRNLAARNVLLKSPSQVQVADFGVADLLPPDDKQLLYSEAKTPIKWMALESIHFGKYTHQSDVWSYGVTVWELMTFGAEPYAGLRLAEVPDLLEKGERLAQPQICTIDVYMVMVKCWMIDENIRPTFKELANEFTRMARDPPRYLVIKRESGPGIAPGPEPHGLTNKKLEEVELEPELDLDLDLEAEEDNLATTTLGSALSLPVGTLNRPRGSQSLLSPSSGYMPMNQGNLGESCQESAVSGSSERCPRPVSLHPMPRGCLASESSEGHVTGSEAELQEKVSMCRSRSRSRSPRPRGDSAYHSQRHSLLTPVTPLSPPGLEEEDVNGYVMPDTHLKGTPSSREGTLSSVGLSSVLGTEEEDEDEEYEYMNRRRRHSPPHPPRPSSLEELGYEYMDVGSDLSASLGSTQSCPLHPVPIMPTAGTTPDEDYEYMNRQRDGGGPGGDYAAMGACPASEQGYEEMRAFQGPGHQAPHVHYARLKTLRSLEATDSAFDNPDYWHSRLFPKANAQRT

Broadly, the pKd is −log10 of the Kd, conventionally taken in molar units. With NRG1b (from UniProt Q02297), the pKd was 10.00.
